This note sets out measurements from paper PMC8346289 (Journal of medicinal chemistry, 2014).

The data set concerns the molecule itself. Kind of data set: crystal structure.

B1: K47A mutant of human thymidylate synthase (enzyme)
chain: MPVAGSELPRRPLPPAAQERDAEPRPPHGELQYLGQIQHILRCGVRADDRTGTGTLSVFGMQARYSLRDEFPLLTTKRVFWKGVLEELLWFIKGSTNAKELSSKGVKIWDANGSRDFLDSLGFSTREEGDLGPVYGFQWRHFGAEYRDMESDYSGQGVDQLQRVIDTIKTNPDDRRIIMCAWNPRDLPLMALPPCHALCQFYVVNSELSCQLYQRSGDMGLGVPFNIASYALLTYMIAHITGLKPGDFIHTLGDAHIYLNHIEPLKIQLQREPRPFPKLRILRKVEKIDDFKAEDFQIEGYNPHPTIKMEMAV
As to B1, the binding result is given as “binds”.
